Results published in PMC5575267, “A novel function of cIAP1 as a mediator of CHIP-driven eIF4E regulation” (Scientific Reports, 2017).
Numbering of substitutions follows the chain as printed. Names may count otherwise. Blank lines part the entries; values can stand above or below the binder they belong to.

What was measured:
[1] = molecular target: T1, GST-cIAP1 (human, UniProt Q13490 1-618); test: pull-down; His-tag pull-down: eIF4E-6His beads pre-incubated with GST-cIAP1 (also in increasing amounts), then incubated with GST-CHIP or GST alone; WB with anti-GST antibody; settings: both partners purified
T1 construct: also called GST-cIAP1 beads; source: bacteria, purified (cloned into pGEX4T-1)

[2] = molecular target: T1, GST-cIAP1; test: pull-down; GST pull-down: GST or GST fusion protein on glutathione beads incubated with 6His-tagged protein in 100 mM Tris pH 8.0, 100 mM NaCl, 2 mM EDTA, 5% glycerol, 2 h at 4 °C; WB with anti-His antibody; settings: both partners purified

T1 sequence (Q13490 whole entry): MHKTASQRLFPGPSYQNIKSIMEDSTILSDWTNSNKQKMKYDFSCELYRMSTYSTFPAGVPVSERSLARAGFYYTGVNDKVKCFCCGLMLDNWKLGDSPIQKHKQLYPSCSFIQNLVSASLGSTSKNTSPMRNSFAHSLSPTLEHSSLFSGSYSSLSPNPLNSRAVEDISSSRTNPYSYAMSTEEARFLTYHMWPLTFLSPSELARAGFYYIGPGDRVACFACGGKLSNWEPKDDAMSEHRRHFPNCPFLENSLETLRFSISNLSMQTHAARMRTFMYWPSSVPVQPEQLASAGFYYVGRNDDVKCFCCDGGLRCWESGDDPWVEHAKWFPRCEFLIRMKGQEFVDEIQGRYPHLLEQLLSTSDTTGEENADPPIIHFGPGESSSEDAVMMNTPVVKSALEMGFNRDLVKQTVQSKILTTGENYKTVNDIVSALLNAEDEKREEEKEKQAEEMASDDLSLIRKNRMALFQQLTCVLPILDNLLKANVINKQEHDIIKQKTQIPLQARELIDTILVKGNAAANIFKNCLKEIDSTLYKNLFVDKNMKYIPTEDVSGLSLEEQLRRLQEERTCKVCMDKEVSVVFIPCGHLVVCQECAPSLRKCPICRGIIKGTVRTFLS

- binding result [1]: binds
B1: GST-CHIP WT (natural protein, UniProt Q9UNE7 1-303, looked up)
chain: MKGKEEKEGGARLGAGGGSPEKSPSAQELKEQGNRLFVGRKYPEAAACYGRAITRNPLVAVYYTNRALCYLKMQQHEQALADCRRALELDGQSVKAHFFLGQCQLEMESYDEAIANLQRAYSLAKEQRLNFGDDIPSALRIAKKKRWNSIEERRIHQESELHSYLSRLIAAERERELEECQRNHEGDEDDSHVRAQQACIEAKHDKYMADMDELFSQVDEKRKKRDIPDYLCGKISFELMREPCITPSGITYDRKDIEEHLQRVGHFDPVTRSPLTQEQLIPNLAMKEVIDAFISENGWVEDY
notes: source: bacteria, purified (cloned into pGEX4T-1)

- binding result [2]: binds
B2: CHIP WT-6His (natural protein, UniProt Q9UNE7 1-303, looked up)
chain: B1 chain
notes: also called CHIP-6His (WT); source: bacteria, purified (cloned into pET 23a)

- binding result [2]: binds
B3: CHIP K30A-6His (natural protein, UniProt Q9UNE7 1-303, looked up)
chain: B1 chain with K30A
notes: also called CHIP-6His (K30A); source: bacteria, purified (cloned into pET 23a)
